Assay [1] has as its target RPA2 (subunit of the RPA trimer) (UniProt P15927). Kind of assay: MST with dye-labelled RPA trimer.
Assay [2] has the same target. Briefly: peptide-bead pull-down, anti-RPA2 blot.
The target of assay [3] is RPA2 WH (Homo sapiens) (UniProt P15927). Kind of assay: NMR. The conditions noted are these: cited from earlier work.
The target is the same in assay [4]. Kind of assay: ITC. The conditions noted are these: cited from earlier work.
Assay [5] deals with human replication protein A (RPA) heterotrimer, recombinant (human) (UniProt P27694).
Assay [6] addresses RPA trimer lacking the RPA2 winged-helix domain (RPA-ΔWH) (human) (UniProt P27694).
The target in assay [7] is human replication protein A (RPA) heterotrimer, recombinant (human) (UniProt P27694). This is another data set of the same source.

pKd: −log10 of the molar value. A value given as a limit tells only on which side of the number the result lay.

Chain of UNG catalytic domain (UNG-CD), starting at UNG2 aa 93 (P13051 93-313): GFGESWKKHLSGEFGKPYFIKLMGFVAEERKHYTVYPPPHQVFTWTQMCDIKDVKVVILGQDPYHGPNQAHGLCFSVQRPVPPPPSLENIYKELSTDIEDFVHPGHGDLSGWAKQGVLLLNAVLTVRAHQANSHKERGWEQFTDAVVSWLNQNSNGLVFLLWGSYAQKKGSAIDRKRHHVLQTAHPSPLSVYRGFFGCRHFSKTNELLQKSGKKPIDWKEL
Chain of RPA2 WH (Homo sapiens) (P15927 172-270): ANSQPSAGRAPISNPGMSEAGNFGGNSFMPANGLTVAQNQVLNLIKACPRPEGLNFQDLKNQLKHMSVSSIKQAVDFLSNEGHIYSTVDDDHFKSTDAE
Chain of human replication protein A (RPA) heterotrimer, recombinant (human) (P27694 whole entry, chain 1 of 3, the tested form may be a part): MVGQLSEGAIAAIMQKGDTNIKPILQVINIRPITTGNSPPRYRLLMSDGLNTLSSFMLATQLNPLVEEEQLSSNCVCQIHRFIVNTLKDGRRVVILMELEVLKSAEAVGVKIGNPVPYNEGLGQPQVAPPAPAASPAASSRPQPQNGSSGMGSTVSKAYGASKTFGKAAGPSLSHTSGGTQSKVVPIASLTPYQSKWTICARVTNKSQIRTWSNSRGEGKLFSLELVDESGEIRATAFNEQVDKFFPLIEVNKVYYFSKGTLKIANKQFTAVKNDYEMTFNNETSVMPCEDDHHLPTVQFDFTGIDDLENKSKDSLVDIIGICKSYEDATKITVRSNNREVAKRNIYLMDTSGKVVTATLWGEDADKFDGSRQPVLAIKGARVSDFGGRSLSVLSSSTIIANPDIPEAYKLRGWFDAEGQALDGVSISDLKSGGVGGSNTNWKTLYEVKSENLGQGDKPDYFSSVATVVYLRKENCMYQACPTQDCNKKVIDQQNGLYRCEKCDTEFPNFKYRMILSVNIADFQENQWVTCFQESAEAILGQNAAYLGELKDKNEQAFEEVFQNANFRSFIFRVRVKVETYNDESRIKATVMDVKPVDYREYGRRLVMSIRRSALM
Chain of human replication protein A (RPA) heterotrimer, recombinant (human) (P15927 whole entry, chain 2 of 3, further chain, the tested form may be a part): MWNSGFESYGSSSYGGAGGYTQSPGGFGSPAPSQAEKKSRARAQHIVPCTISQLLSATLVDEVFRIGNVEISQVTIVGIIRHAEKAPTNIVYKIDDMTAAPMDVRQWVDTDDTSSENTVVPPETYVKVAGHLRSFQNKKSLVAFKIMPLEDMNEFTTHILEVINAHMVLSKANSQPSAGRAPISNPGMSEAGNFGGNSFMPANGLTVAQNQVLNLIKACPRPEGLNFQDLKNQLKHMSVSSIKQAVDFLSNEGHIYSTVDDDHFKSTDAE
Chain of human replication protein A (RPA) heterotrimer, recombinant (human) (P35244 whole entry, chain 3 of 3, further chain, the tested form may be a part): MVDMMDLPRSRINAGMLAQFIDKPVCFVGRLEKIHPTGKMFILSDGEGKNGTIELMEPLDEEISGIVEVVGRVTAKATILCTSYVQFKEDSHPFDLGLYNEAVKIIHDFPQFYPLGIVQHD
Chain of UNG2 peptide (24 aa) (P13051 whole entry): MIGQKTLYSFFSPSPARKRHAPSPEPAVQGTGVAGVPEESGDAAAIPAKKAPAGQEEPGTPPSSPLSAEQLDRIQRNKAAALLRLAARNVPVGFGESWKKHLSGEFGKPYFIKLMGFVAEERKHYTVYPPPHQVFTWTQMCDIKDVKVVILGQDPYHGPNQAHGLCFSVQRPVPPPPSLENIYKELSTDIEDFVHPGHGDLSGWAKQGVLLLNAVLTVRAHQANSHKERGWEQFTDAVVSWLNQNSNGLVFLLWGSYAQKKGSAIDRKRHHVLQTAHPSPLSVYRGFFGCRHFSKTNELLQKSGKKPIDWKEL
Chain of UNG2 peptide (16 aa) (P13051 whole entry): as above
Chain of RPA trimer lacking the RPA2 winged-helix domain (RPA-ΔWH) (human) (P27694 whole entry, stated change not applied, chain 1 of 3, the tested form may be a part): as the sequence (P27694 whole entry, chain 1 of 3, the tested form may be a part) above
Chain of RPA trimer lacking the RPA2 winged-helix domain (RPA-ΔWH) (human) (chain, as listed by the source mutant, chain 2 of 3): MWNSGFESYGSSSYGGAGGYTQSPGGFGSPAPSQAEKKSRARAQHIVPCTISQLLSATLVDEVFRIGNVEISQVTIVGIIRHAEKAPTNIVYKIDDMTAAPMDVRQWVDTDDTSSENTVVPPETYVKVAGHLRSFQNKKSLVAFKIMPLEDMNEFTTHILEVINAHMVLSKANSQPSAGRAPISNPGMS
Chain of RPA trimer lacking the RPA2 winged-helix domain (RPA-ΔWH) (human) (chain, as listed by the source mutant, chain 3 of 3): as the sequence (P35244 whole entry, chain 3 of 3, further chain, the tested form may be a part) above

Turning to “UNG2 57-90 (from UniProt P13051) pEV-34 (pT60) peptide”, the “binding against the reference” value in assay [1] (reference: EV-34 unphosphorylated peptide, sites T60) was “weaker”.
In the case of “UNG2 57-90 (from UniProt P13051) pEV-34 (pT60) peptide beads”, the “binding against the reference” value in assay [2] (reference: EV-34 unphosphorylated peptide beads, sites T60) is recorded as “weaker”.
Consider “UNG2 57-90 (from UniProt P13051) ppEV-34 (pT60, pS64) peptide”, for which the “binding against the reference” value in assay [1] (reference: EV-34 unphosphorylated peptide, sites T60,S64) is “weaker”; in assay [1] (reference: pEV-34 (pT60) peptide, sites S64), “weaker”.
For “UNG2 57-90 (from UniProt P13051) ppEV-34 (pT60, pS64) peptide beads”, the “binding against the reference” value in assay [2] (reference: EV-34 unphosphorylated peptide beads, sites T60,S64) is “weaker”; in assay [2] (reference: pEV-34 (pT60) peptide beads, sites S64), “weaker”.
For orientation: pKd means −log10 of the Kd, conventionally taken in molar units. As to “UNG2 peptide (16 aa) (from UniProt P13051)”, the pKd with RPA2 WH (Homo sapiens) [3] is above 6.00.
On to “UNG2 peptide (24 aa) (from UniProt P13051)”, for which the pKd with RPA2 WH (Homo sapiens) [4] was 5.18.
With “UNG catalytic domain (UNG-CD), starting at UNG2 aa 93 (from UniProt P13051-1 93-313) (domain or fragment)”, in assay [5], the fold decrease in uracil excision from RPA (1 µM)-coated against naked ssDNA (100 nM U10-25*) is 1000 fold. In addition, the fold increase of enzyme concentration needed to convert similar amounts of dsDNA substrate with 500 nM RPA-ΔWH in assay [6] was determined as 50 fold. The fold increase of enzyme concentration needed to convert similar amounts of dsDNA substrate with 500 nM RPA-WT in assay [7] was 200 fold.

Values taken from article PMC8053108, “RPA2 winged-helix domain facilitates UNG-mediated removal of uracil from ssDNA; implications for repair of mutagenic uracil at the replication fork” (Nucleic Acids Research, 2021).
